Two molecules from patent CN110872347A (TIANJIN TIMMUNE BIOTECH INC, dated 2020) can be followed below.

The assay addresses HLA-A2/…抗原复合物 (human). In words: SPR, Biacore T200, antigen on SA chip, Fc fusion as analyte 1-20 nM, Bivalent Analyte model.

B1: 融合蛋白M3-D9-Fc (Fc fusion, not shown: a dimerising Fc or GST)
chain: VQLVETGGGLVQPGGSLRLSCAASGFTFSDYAIQWVRQAPGKGLGRVSYINSGGDTTYYADSVKGRFSIARDNAKNTVYLQMNSLKPEDTAVYYCYAGGYWGQGTQVTVSS
What is called koff is the first-order rate constant of dissociation. What is called kon is the rate constant with which the complex forms. A higher kon goes with fast association. Regarding B1, the Kd stood at 25 nM, the koff is 0.0171 s⁻¹ and the kon was 678000 M⁻¹ s⁻¹.

B2: 融合蛋白M3-E7-Fc (Fc fusion, not shown: a dimerising Fc or GST)
chain: VQLVASGGGLVPPGGSLRLSCAASGRTFNVDAMAWFRQTRGKEREFVAAISRSGGSTYYADSVKGRFSISKDNAKNTMYLQMNSLKPEDTAIYYCAAAIYWRGSYYTEGNYDYWGQRTQVTVSS
In turn, B2 gave a Kd of 9 nM, a koff of 0.0309 s⁻¹ and an on-rate (kon) of 3.43e+06 M⁻¹ s⁻¹.
